The results in this text go back to patent US20160168253A1 (Hoffmann-La Roche, published 2016).

The assay has as its target T1, Aβ1-40 fibers (human).
T1 construct: Coated on Maxisorp plates for 3 days at 37 C to produce fibrillar Abeta; also called fibrillar Aβ; fibrillar Abeta
In words: ELISA on plate-coated fibrillar Aβ(1-40), detection with anti-human-IgG-HRP. How it is done: Binding of fusion polypeptide to fibrillar Aβ was measured by an ELISA assay. Briefly, […] was coated at 7 μg/mL in PBS onto Maxisorp plates for 3 days at 37° C. to produce fibrillar Abeta, then dried for 3 h at RT. The plate was blocked with 1% Crotein C and 0.1% RSA in PBS (blocking buffer) for 1 h at RT, then washed once with wash buffer. Fusion polypeptides or controls were added at concentrations up to 100 nM in blocking buffer and incubated at 4° C. overnight. After 4 wash steps, constructs were detected by addition of anti-human-IgG-HRP (Jackson Immunoresearch) at 1:10,000 dilution in blocking buffer […], followed by 6 washes and incubation in TMB (Sigma). Absorbance was read out at 450 nm after stopping color development with 1 N HCl (see FIG. 1).

B1: Mab 31 = Gantenerumab (INN) (antibody, human IgG1, V domains shown)
VH: QVELVESGGGLVQPGGSLRLSCAASGFTFSSYAMSWVRQAPGKGLEWVSAINASGTRTYYADSVKGRFTISRDNSKNTLYLQMNSLRAEDTAVYYCARGKGNTHKPYGYVRYFDVWGQGTLVTVSS
VL: DIVLTQSPATLSLSPGERATLSCRASQSVSSSYLAWYQQKPGQAPRLLIYGASSRATGVPARFSGSGSGTDFTLTISSLEPEDFATYYCLQIYNMPITFGQGTKVEIKR
notes: Human IgG1 with kappa light chain; Id; No. 13; also called mAb31(HEK); naked anti-Aβ monoclonal antibody
In the case of B1, the binding result is “binds”.
